The results in this text go back to patent US20170305994A1 (Novo Nordisk, published 2017).

A word on the Kd: it is the concentration at which binding is half-saturated. Lower therefore signals a tighter complex. A word on the koff: it is the first-order rate constant of dissociation. Read a high koff as a short-lived complex. What is called kon is the rate constant with which the complex forms. One may read the IC50 as the point on the concentration scale where inhibition reaches its midpoint.

For one test, the target named is T1, DR3 (CRD1)-Fc (human).
T1 construct: Amino acids 25-71 of DR3 fused to the Fc domain of human IgG4; purified to exclude oligomers (mainly dimeric)
Description: SPR Biacore T200, DR3(CRD1)-Fc captured by anti-human IgG, Fab as analyte, 25 C, 1:1 model, mean of 3 surface densities. The protocol: The experiments were performed on a Biacore T200 instrument (GE Healthcare) and analysed with the Biacore T200 Evaluation Software. Anti human IgG antibodies (human IgG capture kit from GE Healthcare) were immobilized on all flow cells of a CM5 sensor chip according to manufacturer's instructions. HBS-EP (GE Healthcare) with 0.1% human serum albumin was used as running buffer. DR3(CRD1)-Fc (SEQ ID NO:2) was captured on the chip at low surface densities between 14 and 45 RU. Fab fragments were diluted to concentrations between 90 and 0.037 nM and subsequently injected for 360 s. […] Binding curves were measured at 25° C. with a flow rate between 30 and 60 μL/min.
Regeneration was performed with 3 M […] for 2×20 s. The raw data were double referenced by subtraction of the signals from a reference flow cell without captured ligand and a buffer blank. Determination of the kinetic parameters was performed by fitting with a 1:1 binding model using the Biacore T200 Evaluation Software (GE Healthcare). Average values obtained from 3 different surface densities of DR3(CRD1)-Fc (SEQ ID NO:2) were calculated and are stated in table 14

For another test, the target named is T2, human DR3 I43N (human, UniProt Q93038 25-417).
T2 sequence: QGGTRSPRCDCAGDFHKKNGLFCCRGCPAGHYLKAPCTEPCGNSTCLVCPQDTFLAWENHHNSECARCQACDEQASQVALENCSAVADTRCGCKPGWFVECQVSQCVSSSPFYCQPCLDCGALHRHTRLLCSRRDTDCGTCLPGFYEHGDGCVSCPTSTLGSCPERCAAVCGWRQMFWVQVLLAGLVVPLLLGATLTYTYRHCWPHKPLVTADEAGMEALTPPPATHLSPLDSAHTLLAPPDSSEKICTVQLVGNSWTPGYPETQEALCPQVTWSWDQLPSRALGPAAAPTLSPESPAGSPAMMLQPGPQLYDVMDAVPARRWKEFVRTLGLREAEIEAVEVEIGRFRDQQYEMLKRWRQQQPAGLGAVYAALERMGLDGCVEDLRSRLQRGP
Briefly: cell-based or functional assay.

Test [1] concerns the target T3, human DR3 with the death domain deleted (ΔM339-P417 of SEQ ID NO:1), expressed on CHOK1SV cells (human, UniProt Q93038 25-338).
T3 construct: also called truncated DR3; hDR3 expressing CHO cells
T3 sequence: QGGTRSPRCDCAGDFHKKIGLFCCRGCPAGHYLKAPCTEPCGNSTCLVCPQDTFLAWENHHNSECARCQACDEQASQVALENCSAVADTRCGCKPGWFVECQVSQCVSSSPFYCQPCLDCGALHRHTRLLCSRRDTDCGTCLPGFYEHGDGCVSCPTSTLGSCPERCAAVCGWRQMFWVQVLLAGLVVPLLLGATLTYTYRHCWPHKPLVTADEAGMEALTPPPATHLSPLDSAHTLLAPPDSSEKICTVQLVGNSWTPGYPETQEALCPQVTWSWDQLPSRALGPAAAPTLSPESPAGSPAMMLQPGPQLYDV
Briefly: flow cytometry competition: Fab vs TL1A on hDR3-expressing CHO cells. For orientation: In flow cytometry, cells or beads pass a laser one at a time.

Test [2] has as its target T4, human DR3 (full length, on cells) (human, UniProt Q93038 25-417).
T4 sequence: T2 sequence with N19I
Briefly: cell-based or functional assay.

Test [3] has as its target T5, cynomolgus DR3 (on HEK293 reporter cells) (cynomolgus, UniProt A0A2K5WJ09 98-464).
T5 sequence: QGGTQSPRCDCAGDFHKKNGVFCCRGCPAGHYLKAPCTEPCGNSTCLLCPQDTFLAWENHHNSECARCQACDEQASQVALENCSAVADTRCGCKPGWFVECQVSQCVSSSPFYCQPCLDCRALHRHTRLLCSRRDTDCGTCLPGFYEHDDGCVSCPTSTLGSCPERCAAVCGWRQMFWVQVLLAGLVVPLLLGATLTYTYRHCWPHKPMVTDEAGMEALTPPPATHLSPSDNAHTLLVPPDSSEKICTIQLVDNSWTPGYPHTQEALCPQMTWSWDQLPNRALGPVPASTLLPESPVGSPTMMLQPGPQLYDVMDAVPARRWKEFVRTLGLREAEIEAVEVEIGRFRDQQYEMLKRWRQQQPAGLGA
Briefly: cell-based or functional assay.

For test [4], the target named is T4, human DR3 (full length, on cells). Briefly: cell-based or functional assay. The source holds these as a separate data set.
Test [5] concerns the target T3, human DR3 with the death domain deleted …. Description: FACS on DR3 expressing cells; competitor Mab 0107.

Numbering of substitutions follows the chain as printed. Numbers in names are those of the source.

T1 sequence (chain, as listed by the source limits assumed): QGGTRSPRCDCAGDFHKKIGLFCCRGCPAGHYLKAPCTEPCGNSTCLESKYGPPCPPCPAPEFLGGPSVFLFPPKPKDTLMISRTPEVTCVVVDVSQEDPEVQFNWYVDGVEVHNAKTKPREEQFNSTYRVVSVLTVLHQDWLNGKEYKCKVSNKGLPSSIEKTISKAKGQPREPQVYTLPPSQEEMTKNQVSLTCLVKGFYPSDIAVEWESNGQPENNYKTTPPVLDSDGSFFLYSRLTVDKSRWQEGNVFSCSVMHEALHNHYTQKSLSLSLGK

B1: 0228 (humanized Fab of 27F44, IgG4, hz0072VH S49A / hz0072VL) (Fab, V domains shown)
VH: EVQLVESGGGLVQPGGSLRLSCAASGFTFSNYDMSWVRQATGKGLEWVAAFSSDGYTFYPGSVKGRFTISRENAKNSLYLQMNSLRAGDTAVYYCARHADYANYPVMDYWGQGTLVTVSS
VL: DIQMTQSPSSLSASVGDRVTITCRASKSVSTSGYSYMHWYQQKPGKAPKLLIYLASNLESGVPSRFSGSGSGTDFTLTISSLQPEDFATYYCQHSRELPLTFGGGTKVEIKR
notes: IgG4-Cys, hz (humanized IgG4 Fab with the hinge cysteine kept)
With B1, in the test with DR3 (CRD1)-Fc, binding was characterised by a dissociation constant (Kd) of 0.00805 nM, the koff turned out to be 3.19e-05 s⁻¹ and the kon worked out at 3.97e+06 M⁻¹ s⁻¹. For the same molecule, the “IC50 of Fab upon stimulation by TL1A, transient reporter” value with human DR3 I43N turned out to be 68 nM. In test [1], this molecule registered an IC50 of 0.484 nM and a max percentage inhibition of 78%. The “IC50 at 40 ng/ml TL1A, I5 reporter cells” value in test [2] came out at 0.32 nM. In test [3], the “IC50 at 40 ng/ml TL1A, Lyda20 reporter cells” value is 628 nM. For the same molecule, in test [4], the “IC50, TNFalpha inhibition, TL1A-activated CD4+ T cells, donor 1” value came out at 0.3 nM; the “IC50, TNFalpha inhibition, TL1A-activated CD4+ T cells, donor 2” value came to 0.17 nM; the “IC50, TNFalpha inhibition, average (n 3)” value was 0.189 nM; the “max % inhibition of TNFalpha, donor 1” value amounted to 92.2%. Further, in test [4], the “max % inhibition of TNFalpha, donor 2” value came to 82.3%. Moreover, the “molar ratio Mab/Fab from which the Fab inhibits” value in test [5] was 1 Fab per Mab (molar ratio Mab/Fab 1:n).
